Results: the supplement of paper PMC10567573
± gives the standard deviation.

Test: protein stability index of a GFP-peptide fusion (GPS, HEK-293T) (PSI 1-6); higher = more stable
Conditions: c terminus: a fixed tail appended
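Note: 24-mer peptide tiles fused after GFP, lentivirally expressed, FACS-sorted into six equal bins by GFP/DsRed ratio, decoded by Illumina sequencing, PSI is the read-weighted mean bin number.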

Row | Sequence | protein stability index (treatment: DMSO) | protein stability index (treatment: MLN4924 1 uM, 8 h)
1 | SAEEVRFPVSVTQQSPAAVSMETY [C2CD2L] | 4.52 ± 0.33 | 4.71 ± 0.14
2 | TSRDRKDHMVRMHLYPADFRFDKP [ZNF511] | 2.87 ± 0.31 | 3.22 ± 0.14
3 | LSFLDYRDLINCCYVSRRLSQLSS [FBXO3] | 2.59 ± 0.18 | 2.14 ± 0.48
4 | NPPAQPAPNAWQVIKGVLFRIFII [CLPTM1] | 1.9 ± 0.18 | 2.09 ± 0.15
5 | SAVEGAPPARPRPRSPECRMIPGQ [IRX6] | 4.86 ± 0.24 | 4.96 ± 0.32
6 | ETRVWHRRDGKWQIVHFHRSGAPS [CAMK2A] | 2.95 ± 0.07 | 3.1 ± 0.25
7 | AARLLRALSSFREESRFCDAHLVL [GAN] | 2.41 ± 0.65 | 2.02 ± 0.27
8 | GSAPNSPMALLTIGSSSEKEIDDV [TFE3] | 5.26 ± 0.28 | 5.55 ± 0.18
9 | ECMLLVFGIDVKEVDPTGHSFVLV [MAGEA10] | 2.82 ± 0.44 | 2.8 ± 0.66
10 | RFLANEVLQENYTHLPKADIFALA [WEE1] | 2.27 ± 0.2 | 2.33 ± 0.41
11 | KQLICPICLEMFTKPVVILPCQHN [TRIM63] | 2.97 ± 0.31 | 3.01 ± 0.43
12 | FSVVRRCVKLCTGHEYAAKIINTK [CAMK2B] | 2.1 ± 0.35 | 2.21 ± 0.19
13 | MVLSRPCHPDDQFTTSILRHWCMK [INTS3] | 2.21 ± 0.18 | 2.26 ± 0.24
14 | KAHETLHQSLSLASSPKGTIENIL [CDC25A] | 3.55 ± 0.5 | 3.59 ± 0.22
15 | QLPRPPIVGGNKGRSGPLPPVPLG [WAS] | 3.55 ± 0.13 | 3.83 ± 0.64
16 | SVPIVYEKYKTQIDHYVGIARDQT [RTN3] | 2.89 ± 0.36 | 3.06 ± 0.09
17 | PRIEASKVLLCHGELRSKSGHKLY [NET1] | 2.64 ± 0.46 | 2.81 ± 0.34
18 | AKRLLDADDAAAVAAKCPRLSECS [TRIB1] | 4 ± 0.51 | 4.11 ± 0.42
19 | VHSERKLLPLVTLCDGNPRRPSPV [SCNN1D] | 3.58 ± 0.23 | 3.56 ± 0.49
20 | MRRQEPLPPPPPPSRGGNQLPRPP [WAS] | 4.8 ± 0.18 | 4.89 ± 0.17
21 | CRYATQLQQIQGLIGGLEAQLSEL [KRT15] | 2.23 ± 0.066 | 2.33 ± 0.18
22 | LALLLCAGQVTALPVNSPMNKGDT [CHGA] | 2.68 ± 0.83 | 2.59 ± 0.5
23 | LNDRLASYLDKVRALEEANTELEV [KRT17] | 4.03 ± 0.11 | 4.17 ± 0.17

Row | Sequence | protein stability index (treatment: DMSO) | protein stability index (treatment: MLN4924 1 uM, 8 h)
24 | RVGIFLDYEAGTLSFYNVTDRSHI [TRIM39] | 2.6 ± 0.77 | 2.26 ± 0.35
25 | PEKEYQRQVWLLFEYPESSGPARV [KCNA1] | 2.59 ± 0.29 | 2.06 ± 0.33
26 | RRLYHLEGFQRCDVARQLGKNNEF [PSD2] | 2.61 ± 0.43 | 2.8 ± 0.16
27 | RLSRRMASQHSYPLNRFSSVPLDP [CBY2] | 3.22 ± 0.27 | 3.45 ± 0.22
28 | EDSSRDIREALHELLCCTNVSTKE [INTS4] | 3.75 ± 0.31 | 3.98 ± 0.25
29 | VDCTEIFGGNPRFLSLHRAHLGEE [ZNF263] | 3.11 ± 0.4 | 3.24 ± 0.25
30 | PDSHQKRPQHSHSNKKRPSLDGRD [ELOA2] | 5.33 ± 0.17 | 5.14 ± 0.21
31 | IIKQLKDVFERDWYSPYAKTLQPT [PLD5] | 1.98 ± 0.59 | 1.97 ± 0.39
32 | RSSGLVQRRTEASRNAADKERAAG [GOLPH3] | 5.11 ± 0.3 | 5.14 ± 0.33
33 | FSEALAEGAVKMGMPSSLAHRIAA [PYCR3] | 3.12 ± 0.42 | 3.06 ± 0.52
34 | LSASSPRMLHRSTQTTNDGVCQSM [ZMYND11] | 4 ± 0.24 | 4.34 ± 0.18
35 | RSGSPTVPIKPPCIPNGKENFSGG [CAMK2D] | 4.2 ± 0.2 | 4.32 ± 0.21
36 | DSASPVEDTSNDESSILGTDIDLQ [M1AP] | 5.62 ± 0.2 | 5.62 ± 0.21
37 | EEAKGLLDKVKDGGYRPAEDKIFP [ZBED1] | 4.84 ± 0.3 | 4.78 ± 0.41
38 | WKITIYDQENFQGKRMEFTSSCPN [CRYBA1] | 2.26 ± 0.38 | 2.15 ± 0.23
39 | NQQIHEQEKKILELEKLAEKNIIL [MTUS2] | 4.13 ± 0.18 | 4.25 ± 0.17
40 | PVDLNKILEDMRCQYEALVENNRR [KRT36] | 3.31 ± 0.3 | 3.23 ± 0.36
41 | HLLSWFSPTIIFDNWIPLLWCANI [DHCR7] | 2.98 ± 0.18 | 3.08 ± 0.21
42 | MDPQNQHGSGSSLVVIQQPSLDSR [SPRY1] | 4.69 ± 0.096 | 4.65 ± 0.13
43 | TLDVYNPFETREPPPAYEPPAPAP [SCAMP3] | 4.51 ± 0.18 | 4.61 ± 0.2
44 | ANAEDAQEFSDVERAIETLIKNFH [S100A14] | 3.39 ± 0.43 | 3.94 ± 0.74
45 | NYRIMSYFKEAELKDLLLQVGRGL [WEE1] | 2.46 ± 0.87 | 2.15 ± 0.4
